# Results published in patent publication US20070136897A1, “Nucleic acid molecules encoding hyperactive nucleoside di-phosphate kinase 2 and uses thereof” (priority 2005, published 2007).
# T1: Arabidopsis thaliana NDPK2 C-terminal deletion mutant R230Stop (80-229aa), SEQ ID NO: 2 (Arabidopsis thaliana, UniProt O64903)
# T1 sequence (O64903 80-229): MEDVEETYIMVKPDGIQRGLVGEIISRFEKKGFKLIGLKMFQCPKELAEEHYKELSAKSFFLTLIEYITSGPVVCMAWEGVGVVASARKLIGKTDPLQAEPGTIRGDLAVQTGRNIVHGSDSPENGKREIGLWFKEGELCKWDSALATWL
# T2: purified native oat phytochrome A, Pfr form, P06593
# T2 chain: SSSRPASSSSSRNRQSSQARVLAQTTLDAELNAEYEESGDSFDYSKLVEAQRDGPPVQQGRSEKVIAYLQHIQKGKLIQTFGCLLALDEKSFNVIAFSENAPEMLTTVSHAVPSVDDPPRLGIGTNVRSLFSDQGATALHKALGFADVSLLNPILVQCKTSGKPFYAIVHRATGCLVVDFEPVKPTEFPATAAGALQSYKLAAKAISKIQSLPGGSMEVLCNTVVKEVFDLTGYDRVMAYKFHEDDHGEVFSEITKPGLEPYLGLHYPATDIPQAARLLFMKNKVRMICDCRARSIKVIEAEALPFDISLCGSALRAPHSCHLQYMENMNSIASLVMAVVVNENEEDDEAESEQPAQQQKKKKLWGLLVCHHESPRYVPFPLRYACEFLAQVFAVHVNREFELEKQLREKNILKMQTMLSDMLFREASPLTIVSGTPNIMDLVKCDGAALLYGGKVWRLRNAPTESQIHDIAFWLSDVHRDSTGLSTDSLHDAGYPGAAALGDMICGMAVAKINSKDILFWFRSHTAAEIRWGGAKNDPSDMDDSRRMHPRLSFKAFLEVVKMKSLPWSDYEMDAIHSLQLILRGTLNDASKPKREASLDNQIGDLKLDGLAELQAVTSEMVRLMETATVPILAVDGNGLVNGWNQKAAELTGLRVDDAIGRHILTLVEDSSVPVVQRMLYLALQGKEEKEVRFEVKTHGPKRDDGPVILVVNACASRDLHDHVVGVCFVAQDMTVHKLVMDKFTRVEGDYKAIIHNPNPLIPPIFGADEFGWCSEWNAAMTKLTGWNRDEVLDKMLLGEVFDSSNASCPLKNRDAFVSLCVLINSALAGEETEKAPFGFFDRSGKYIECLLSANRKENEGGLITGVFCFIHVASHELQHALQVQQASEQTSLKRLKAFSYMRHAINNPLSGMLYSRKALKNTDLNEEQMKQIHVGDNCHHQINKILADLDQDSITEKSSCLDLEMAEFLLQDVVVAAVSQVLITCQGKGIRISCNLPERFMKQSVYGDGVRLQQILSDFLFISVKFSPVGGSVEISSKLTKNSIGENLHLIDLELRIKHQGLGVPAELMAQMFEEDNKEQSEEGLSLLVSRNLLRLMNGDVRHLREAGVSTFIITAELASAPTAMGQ
# T3: purified native oat phytochrome A, Pfr form (oat, UniProt P06593 2-1129)
# T3 construct: also called phyA; Pfr phytochrome
# T3 sequence (looked up): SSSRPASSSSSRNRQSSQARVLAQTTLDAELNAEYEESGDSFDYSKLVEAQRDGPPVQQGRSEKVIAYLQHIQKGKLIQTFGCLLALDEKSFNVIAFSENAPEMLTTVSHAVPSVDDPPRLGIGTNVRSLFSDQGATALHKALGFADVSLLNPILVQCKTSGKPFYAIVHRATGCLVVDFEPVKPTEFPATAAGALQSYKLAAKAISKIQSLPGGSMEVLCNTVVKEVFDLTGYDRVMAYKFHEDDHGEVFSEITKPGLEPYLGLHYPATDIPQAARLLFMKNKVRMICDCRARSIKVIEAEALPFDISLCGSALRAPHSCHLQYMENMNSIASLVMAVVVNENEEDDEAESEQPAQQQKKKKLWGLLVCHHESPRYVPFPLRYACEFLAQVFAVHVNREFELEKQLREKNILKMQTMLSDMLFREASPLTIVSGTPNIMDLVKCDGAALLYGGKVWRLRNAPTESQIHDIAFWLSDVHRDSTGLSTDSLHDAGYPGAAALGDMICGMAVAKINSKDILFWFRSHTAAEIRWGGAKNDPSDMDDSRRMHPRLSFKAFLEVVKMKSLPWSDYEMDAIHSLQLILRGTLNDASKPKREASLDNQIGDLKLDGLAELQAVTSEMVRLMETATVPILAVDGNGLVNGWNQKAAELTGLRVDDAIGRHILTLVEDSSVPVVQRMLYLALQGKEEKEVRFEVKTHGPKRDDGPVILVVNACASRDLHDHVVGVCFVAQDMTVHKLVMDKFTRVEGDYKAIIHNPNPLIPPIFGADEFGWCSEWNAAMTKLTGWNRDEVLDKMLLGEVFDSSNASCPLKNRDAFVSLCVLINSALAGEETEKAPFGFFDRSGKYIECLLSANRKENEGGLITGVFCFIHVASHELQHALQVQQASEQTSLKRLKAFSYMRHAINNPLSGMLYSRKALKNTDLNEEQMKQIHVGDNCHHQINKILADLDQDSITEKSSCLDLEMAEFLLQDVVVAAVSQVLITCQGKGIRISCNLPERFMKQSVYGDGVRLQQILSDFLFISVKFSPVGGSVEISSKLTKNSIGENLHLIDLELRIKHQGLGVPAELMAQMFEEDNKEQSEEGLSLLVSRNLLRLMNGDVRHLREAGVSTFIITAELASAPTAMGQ
# How the values were obtained:
# [1] = target: T1, Arabidopsis thaliana NDPK2 C-terminal deletion mutant R230Stop (80-229aa), SEQ ID NO: 2; assay: Km of NDPK2 mutant R230Stop for nucleotides (γ-phosphate exchange activity assay, LDH-PK-coupled); details: read-out: Km (ATP); dCDP as acceptor
# Experimental: (§1) In studying the phytochrome binding site in NDPK2, NDPK2 mutants, including the C-terminal deletion mutants, kinase site mutant H197C, and Kpn loop mutant P175S, were made and tested in the binding assays with the Pfr form of native oat phyA (FIG. 2A). […] To investigate the mechanism of hyperactivity of these NDPK2 mutants, the nucleotide affinity was investigated.
# (§2) Full-length Arabidopsis NDPK2 was prepared as previously described (Im et al., 2004). The C-terminal deletion mutants of NDPK2 were prepared by polymerase chain reactions using following primers: R230Stop (80-229aa) with 3′ primer: 5′-[…]-[…]-3′ (SmaI) (SEQ ID NO: 8); L225Stop (80-224aa) with 3′ primer: 5′-[…]-[…]
# [2] = target: Arabidopsis thaliana NDPK2 C-terminal deletion mutant L225Stop (80-224aa), SEQ ID NO: 3 (Arabidopsis thaliana, UniProt O64903); details: read-out: Km (ATP); dCDP as acceptor
# Experimental: as §1, §2
# [3] = target: T2, purified native oat phytochrome A, Pfr …
# [4] = substrate: Nc1nc2c(ncn2[C@@H]2O[C@H](COP(=O)(O)OP(=O)(O)O)[C@@H](O)[C@H]2O)c(=O)[nH]1; assay: purified protein, by the assay type; details: other: ATP as donor; 37.0 °C
# [5] = target: T3, purified native oat phytochrome A, Pfr …; assay: in vitro immunoprecipitation with native oat phyA, western blot
# Excerpt: In studying the phytochrome binding site in NDPK2, NDPK2 mutants, including the C-terminal deletion mutants, kinase site mutant H197C, and Kpn loop mutant P175S, were made and tested in the binding assays with the Pfr form of native oat phyA (FIG. 2A). […] Moreover, no interactions between Pfr phytochrome and mutants N204Stop and S199Stop were observed. […] Results from the γ-phosphate exchange activity assay were consistent with the in vitro binding assay. […] Thus, R230Stop and L225Stop were hyperactive NDPK2 that binds normally to its upstream signaling molecule, phytochrome. To investigate the mechanism of hyperactivity of these NDPK2 mutants, the nucleotide affinity was investigated. By using two natural nucleotide substrates of NDPK2, ATP and GDP, the Kₘ values were measured to examine the relationship between the nucleotide affinity and NDPK activity in NDPK2 hyperactive mutants (Table 1). […] Therefore, it appears that a higher nucleotide affinity corresponds to a higher NDPK activity.
# The in vitro binding assays of phytochrome and NDPK2 were performed by incubating 10 μg of phytochrome and 20 μg of NDPK2 in TBS buffer (50 mM Tris-HCl (pH 7.5), 150 mM NaCl), containing 5 mM MgCl₂, 2 mM dCDP, 0.1% NP40 and protease inhibitors, at 4° C. for 30 min. […]
# [6] = substrate: Nc1ncnc2c1ncn2[C@@H]1O[C@H](COP(=O)(O)OP(=O)(O)OP(=O)(O)O)[C@@H](O)[C@H]1O; assay: Km of NDPK2 for nucleotides (γ-phosphate exchange activity assay, LDH-PK-coupled); type: biochemical, Arabidopsis thaliana; details: other: dCDP as acceptor; 37.0 °C
# Experimental: NDPK proteins with a cleavable GST tag were expressed in Escherichia coli strain BL21 (DE3). The bacterial cells were induced for 4 h with 1 mM isopropyl β-D-thiogalactopyranoside (IPTG) at 310 K and then harvested by centrifugation at 4,500×g for 20 min. The cells were then resuspended in lysis buffer (1× PBS, phosphate-buffered saline) and lysed by sonication, after which the lysate was centrifuged at 16,000×g for 30 min. The resultant supernatant was applied to a glutathione-sepharose 4B affinity column pre-equilibrated with lysis buffer, after which the column was washed with ten bed volumes of lysis buffer. The GST fusion protein bound to the column was eluted with a buffer of 10 mM glutathione and 50 mM Tris-HCl (pH 8.0). GST Tags were cleaved from NDPKs by treatment with thrombin for 2 days at room temperature. The samples were then purified by size exclusion chromatography using a Superdex 200 column (Pharmacia Biotech) pre-equilibrated with a buffer of 50 mM NaCl and 10 mM Tris-HCl (pH 8.0), after which the fractions containing NDPKs were collected. […]
# NDPK2 γ-phosphate exchange activity was measured as previously described (20) with minor modifications. […] NDPK2 activity was measured by monitoring the LDH-PK-coupled NADH decrease at 340 nm. […]
molecule,measurement,setting,value
Nc1ncnc2c1ncn2[C@@H]1O[C@H](COP(=O)(O)OP(=O)(O)OP(=O)(O)O)[C@@H](O)[C@H]1O [ATP],Km,[1],211 µM
same,Km,[2],213 µM
NDPK2 C-terminal deletion mutant R230Stop (protein) MEDVEETYIMVKPDGIQRGLVGEIISRFEKKGFKLIGLKMFQCPKELAEEHYKELSAKSFFLTLIEYITSGPVVCMAWEGVGVVASARKLIGKTDPLQAEPGTIRGDLAVQTGRNIVHGSDSPENGKREIGLWFKEGELCKWDSALATWL,stimulation by Pfr phytochrome in the γ-phosphate exchange activity assay,[3],Mutants R230Stop and L225Stop were stimulated by Pfr phytochrome significantly
same,Km,[4],0.203 mM mM
NDPK2 C-terminal deletion mutant L225Stop (protein) MEDVEETYIMVKPDGIQRGLVGEIISRFEKKGFKLIGLKMFQCPKELAEEHYKELSAKSFFLTLIEYITSGPVVCMAWEGVGVVASARKLIGKTDPLQAEPGTIRGDLAVQTGRNIVHGSDSPENGKREIGLWFKEGELCKWDSA,stimulation by Pfr phytochrome in the γ-phosphate exchange activity assay,[3],Mutants R230Stop and L225Stop were stimulated by Pfr phytochrome significantly
same,Km,[4],0.191 mM mM
NDPK2 C-terminal deletion mutant K214Stop (protein) MEDVEETYIMVKPDGIQRGLVGEIISRFEKKGFKLIGLKMFQCPKELAEEHYKELSAKSFFLTLIEYITSGPVVCMAWEGVGVVASARKLIGKTDPLQAEPGTIRGDLAVQTGRNIVHGSDSPENGKREIGLWF,stimulation by Pfr phytochrome in the γ-phosphate exchange activity assay,[3],"mutants K214Stop, N204Stop, and S199Stop were not stimulated under the identical conditions"
"NDPK2 C-terminal deletion mutant N204Stop (enzyme, also called N204Stop (80-203aa)) MEDVEETYIMVKPDGIQRGLVGEIISRFEKKGFKLIGLKMFQCPKELAEEHYKELSAKSFFLTLIEYITSGPVVCMAWEGVGVVASARKLIGKTDPLQAEPGTIRGDLAVQTGRNIVHGSDSPE",binding result,[5],no binding
same,stimulation by Pfr phytochrome in the γ-phosphate exchange activity assay,[3],"mutants K214Stop, N204Stop, and S199Stop were not stimulated under the identical conditions"
"NDPK2 C-terminal deletion mutant S199Stop (enzyme, also called S199Stop (80-198aa)) MEDVEETYIMVKPDGIQRGLVGEIISRFEKKGFKLIGLKMFQCPKELAEEHYKELSAKSFFLTLIEYITSGPVVCMAWEGVGVVASARKLIGKTDPLQAEPGTIRGDLAVQTGRNIVHG",binding result,[5],no binding
same,stimulation by Pfr phytochrome in the γ-phosphate exchange activity assay,[3],"mutants K214Stop, N204Stop, and S199Stop were not stimulated under the identical conditions"
"Arabidopsis thaliana nucleoside diphosphate kinase 2 (NDPK2), wild type, SEQ ID NO: 1 (Arabidopsis thaliana) (protein, hexamer) ASSSAESGIFLPHLVASMEDVEETYIMVKPDGIQRGLVGEIISRFEKKGFKLIGLKMFQCPKELAEEHYKELSAKSFFLTLIEYITSGPVVCMAWEGVGVVASARKLIGKTDPLQAEPGTIRGDLAVQTGRNIVHGSDSPENGKREIGLWFKEGELCKWDSALATWLRE",Km,[6],0.286 mM mM
same,Km,[4],0.231 mM mM
